Test results published in paper PMC5834165, “Crystal structures of PCNA mutant proteins defective in gene silencing suggest a novel interaction site on the front face of the PCNA ring” (PLoS ONE, 2018).
Numbering of substitutions follows the chain as printed. In names and notes the source's numbering stands.

B1: D41A/D42A mutant PCNA protein from Saccharomyces cerevisiae (natural protein)
chain: MLEAKFEEASLFKRIIDGFKDCVQLVNFQCKEDGIIAQAVAASRVLLVSLEIGVEAFQEYRCDHPVTLGMDLTSLSKILRCGNNTDTLTLIADNTPDSIILLFEDTKKDRIAEYSLKLMDIDADFLKIEELQYDSTLSLPSSEFSKIVRDLSQLSDSINIMITKETIKFVADGDIGSGSVIIKPFVDMEHPETSIKLEMDQPVDLTFGAKYLLDIIKGSSLSDRVGIRLSSEAPALFQFDLKSGFLQFFLAPKFNDEE
notes: PCNA, Saccharomyces cerevisiae, with D41A and D42A; also called D41A/D42A PCNA; encoded by the pol30-6 allele; source: E. coli, overexpressed, purified as described previously [35]
B2: L126A/I128A mutant PCNA protein from Saccharomyces cerevisiae (natural protein)
chain: B1 chain with A41D, A42D, L126A, I128A
notes: PCNA, Saccharomyces cerevisiae, with L126A and I128A; also called L126A/I128A PCNA; encoded by the pol30-79 allele; source: E. coli, overexpressed, purified as described previously [35]
B3: R61A/D63A mutant PCNA protein from Saccharomyces cerevisiae (natural protein)
chain: B1 chain with A41D, A42D, R61A, D63A
notes: PCNA, Saccharomyces cerevisiae, with R61A and D63A; also called R61A/D63A PCNA; encoded by the pol30-8 allele; source: E. coli, overexpressed, purified as described previously [35]

Molecular target: the molecule itself
Experiment: native gel or EMSA; proteins at 0.1, 0.5, 1.0 mg/ml in 10 mM Tris-Cl pH 7.6, 150 mM NaCl, 2.5% Ficoll-400, 10 mM EDTA, 5 min; 4-20% gradient nondenaturing Tris-Glycine gel at 4°C; Coomassie blue; self-association (trimer)

Stoichiometry N, 3:
B1
B2
B3
